Laboratory results from patent publication US20080227700A1, “Compositions and Methods for Treatment of Protein Misfolding and Protein Aggregation Diseases” (priority 2004, published 2008).

Key:
[1] = target: Aβ (Homo sapiens, UniProt P05067); experiment: Aβ ThioflavinT fluorescence (fibrillization of Aβ); assay type: biochemical; conditions: 1:10 Aβ:peptide; for effect on the fibrillization of Aβ: ThioflavinT fluorescence after 72 hrs, comparison among αB crystallin and five peptides
Procedure: Aβ Thioflaviin T fluorescence. Aβ fibrils were grown in the presence and absence of αB crystallin and peptides in conditions similar to that previously described for the presence of αB crystallin. Bakthisaran et al., Biochem J, 2005. Peptides were dissolved to 9.1 mM in trifluorethanol (TFE) and diluted to 0.91 mM stock solutions in 50 mM PBS, 100 mM NaCl, pH 7.4. 3.5 mg of ThioflavinT was dissolved in 100 μl of 50 mM Glycine pH 8.5. A stock solution of 1 mg/ml (0.22 mM) Aβ was prepared. 20 μl Aβ, 50 μl chaperone, 2 μl ThioflavinT was mixed with 28 μl 50 mM PBS, 100 mM NaCl, pH 7.4. Fluorescence was read using a Beckman Coultier DTX 880 multimode detector. Samples were heated at 50° C. for 72 hours and fluorescence was read again.
(§1) The fibrillization of Aβ was measured as fluorescence of the fluorescent dye ThioflavinT from solutions containing 1:10 monomeric molar ratio of Aβ:peptide. In the absence of Aβfibrils, ThioflavinT had little or no fluorescence. The fluorescence of the ThioflavinT bound to Aβ fibrils in the absence of any other molecule after 72 hrs was set to 100%. […] Fibril formation=ΔfluorescenceAβ (with chaperone)*100/ΔfluorescenceAβ (without chaperone).

[2] = target: amyloid beta (1-42) (Homo sapiens, UniProt P05067); experiment: Cu+++-induced aggregation of amyloid-beta (1-42) in vitro, light scattering; assay type: biochemical; conditions: 100 mM Cu+++, 360 nm; for preventing the Cu+++-induced aggregation of amyloid-beta: 1:1 and 1:10 molar ratio of amyloid-beta to peptide; for preventing the Cu+++ induced aggregation of amyloid-beta: 10:1 molar ratio of amyloid-beta to peptide
Procedure: In vitro assays were also performed to measure the ability of the human αB crystallin derived peptides identified in Example 1 to inhibit aggregation of Cu^+++-induced amyloid beta (1-42) aggregation. Aggregation assays were performed using routine procedures, in the presence or absence of a synthesized peptide identified in Example 1, in the presence of 100 mM Cu^+++. Aggregation was measured spectrophotometrically as light scattering at a wavelength of 360 nm. Aggregated amyloid-beta was assigned a value of 100% aggregation and used to normalize aggregation in the presence of synthesize peptides.
Aggregation was measured spectrophotometrically as light scattering at a wavelength of 360 nm. Aggregated amyloid-beta was assigned a value of 100% aggregation and used to normalize aggregation in the presence of synthesize peptides. Aggregation was plotted as a bar graph with the standard error for duplicate experiments. The 1st vertical bar is the scattering measured for aggregated amyloid-beta (100% aggregation) in the presence of 100 mM Cu^+++. The 2nd-4th vertical bars is the scattering from amyloid-beta in the presence of wild type recombinant human αB crystallin. The 5th-13th vertical bars are the scattering of amyloid-beta in the presence of the synthetic peptides, DRFSVNLDVKHFS or LTITSSLSDGV or HGKHEERQDE at selected concentrations. A prefix of 10× represents a 10:1 molar concentration of amyloid-beta to either wild type αB crystallin or its peptides. A prefix of 1X represents a 1:1 molar concentration of amyloid-beta to either wt αB crystallin or its peptides. A prefix of 0.1× represents a 1:10 molar concentration of amyloid-beta to either wt αB crystallin or its peptides.

[3] = system: βH crystallin; experiment: Chaperone assay, thermal aggregation of βH crystallin; assay type: biochemical; conditions: 50:1 molar ratio of peptide:βH crystallin; 50° C., sixty minutes; light scattering λ=340 nm; no peptide = 0% protection
Procedure: (§2) The chaperone activity of the peptides was measured as their ability to protect against the thermal aggregation of three chaperone target proteins βH crystallin, ADH and CS in chaperone assays performed at 50° C. (FIG. 19). A non-interactive αB crystallin sequence 111HGKHEERQDE120 was used as the negative control in the chaperone assays (FIG. 19). Based on near and far UVCD, the three target proteins unfolded in the order: CS>>>ADH>>βH crystallin when they were heated at 50° C. for sixty minutes (FIGS. 15 and 16). The thermal aggregation of βH crystallin, ADH and CS was measured as light scattering at λ=340 nm in the presence and absence of each peptide. The chaperone activity of each peptide was calculated as percent protection in which the aggregation of each target protein in the absence of any peptides was set at 0% protection (FIG. 19). The interactive peptides 73DRFSVNLDVKHFS85 and 131LTITSSLSDGV141 were effective inhibitors of aggregation of all three chaperone target proteins.
(§3) A (top left): thermal aggregation of chaperone target proteins βH crystallin, ADH and CS in the absence of peptides was measured as light scattering at λ=340 nm. Each target protein was heated at 50° C. for sixty minutes in the absence or presence of one of the peptides. […] The chaperone activity of each peptide was calculated as percent protection in which the aggregation of each target protein in the absence of any peptides was set at 0% protection. The ability of the 73DRFSVNLDVKHFS85, 131LTITSSLSDGV141 and 111HGKHEERQDE120 to protect against the thermal aggregation of βH crystallin (B: top right), ADH (C: bottom left) and CS (D: bottom right) were tested in vitro (vertical bars). […] A 10:1 molar ratio of peptide:target protein was sufficient in conferring significant protection against the aggregation of CS by 73DRFSVNLDVKHFS85 and 131LTITSSLSDGV141.

[4] = target: T1, γD crystallin (Homo sapiens, UniProt P07320); experiment: γD crystallin ThioflavinT fluorescence (fibrillization of γD crystallin); assay type: biochemical; conditions: ThioflavinT; 50° C. for 72 hours; 1:1 γD crystallin:peptide; no chaperone 888,803,840
T1 sequence (P07320 1-174): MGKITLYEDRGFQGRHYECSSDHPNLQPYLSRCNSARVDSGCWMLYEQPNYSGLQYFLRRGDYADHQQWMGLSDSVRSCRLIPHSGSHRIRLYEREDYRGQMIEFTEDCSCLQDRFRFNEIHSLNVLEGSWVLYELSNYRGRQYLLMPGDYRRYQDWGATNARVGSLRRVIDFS
Procedure: γD crystallin Thioflaviin T fluorescence. γD crystallin fibrils were formed in a similar way to that of γ crystalline. Meehan et al., J Biol Chem 279: 3413-3419, 2004. Peptides were dissolved to […] IN tfe AND DILUTED to 0.91 mM stock solutions in 10% TFE, pH 2.0.
3.5 mg of ThioflavinT was dissolved in 100 μL of 50 mM Glycine pH 8.5. A stock solution of 1 mg/ml (0.22 mM) Aβ was prepared. 20 μl Aβ, 5 μl chaperone, 2 μl ThioflavinT was mixed with 73 μL 10% TFE, pH 2.0. Fluorescence was read using a Beckman Coultier DTX 880 multimode detector. Samples were heated at 50° C. for 72 hours and fluorescence was read again.
as §1, with “γD crystallin” for “Aβ”, “1:1” for “1:10”, “γD crystallin:peptide.” for “Aβ:peptide.”, “fibrils” for “Aβfibrils,”, “formation=ΔfluorescenceγD crystallin” for “formation=ΔfluorescenceAβ”, “chaperone)*100/ΔfluorescenceγD crystallin” for “chaperone)*100/ΔfluorescenceAβ”

[5] = target: T2, ADH (Equus caballus, UniProt P00327); experiment: Chaperone assay, thermal aggregation of ADH; assay type: biochemical; conditions: 50:1 molar ratio of peptide:ADH; 50° C., sixty minutes; light scattering λ=340 nm; no peptide = 0% protection
T2 construct: purchased
Procedure: as §2, §3

[6] = system: βL crystallin; experiment: Chaperone assay, thermal aggregation of βL crystallin; assay type: biochemical; conditions: light scattering at λ=340 nm; 1:10 target protein:peptide; comparison among five peptides
Procedure: Chaperone Assays. Chaperone assays of the five peptides were performed using previously established methods with minor modifications. Muchowski et al., J Mol Biol 289: 397-411, 1999. A 1:1 monomeric molar ratio of chaperone: target protein was determined to be the optimum ratio and all subsequent chaperone assays of the β3 mutants were performed in triplicate and at a 1:1 monomeric molar ratio of chaperone: target protein in a 96-well ELISA micro-titer plate. […] of the chaperone and βL crystallin were mixed in a total volume of 200 μL buffer (5 mM PBS, pH 7.0). Light scattering at λ=340 nm was measured using a Multiskan MCC/340 plate reader before heating (time=0). After the first reading, the plate was heated at 50° C. and readings were taken at fifteen minute intervals for one hour.
The ability of the peptides to suppress the thermal aggregation of βL crystallin was measured spectrophotometrically as light scattering at λ=340 nm from solutions containing 1:10 monomeric molar ratio of target protein: peptide.

[7] = target: T3, CS (Sus scrofa, UniProt P00889); experiment: Chaperone assay, thermal aggregation of CS; assay type: biochemical; conditions: 10:1 molar ratio of peptide:CS; 50° C., sixty minutes; light scattering λ=340 nm; no peptide = 0% protection
T3 construct: purchased
T3 sequence (P00889 28-464): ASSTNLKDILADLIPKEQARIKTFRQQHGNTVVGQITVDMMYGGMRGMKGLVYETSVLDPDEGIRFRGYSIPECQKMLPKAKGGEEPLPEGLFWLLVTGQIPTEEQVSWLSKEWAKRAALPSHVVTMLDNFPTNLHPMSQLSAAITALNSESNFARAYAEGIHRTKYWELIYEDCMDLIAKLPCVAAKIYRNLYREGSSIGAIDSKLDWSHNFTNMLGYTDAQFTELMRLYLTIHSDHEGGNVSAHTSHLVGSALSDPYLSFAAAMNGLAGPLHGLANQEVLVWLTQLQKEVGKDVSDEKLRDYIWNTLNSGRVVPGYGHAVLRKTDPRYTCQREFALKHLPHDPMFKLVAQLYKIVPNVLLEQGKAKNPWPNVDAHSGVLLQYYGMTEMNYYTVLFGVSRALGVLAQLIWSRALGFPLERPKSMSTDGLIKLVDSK
Procedure: as §2
A (top left): thermal aggregation of chaperone target proteins βH crystallin, ADH and CS in the absence of peptides was measured as light scattering at λ=340 nm. […] The chaperone activity of each peptide was calculated as percent protection in which the aggregation of each target protein in the absence of any peptides was set at 0% protection. […]

[8] = as provided by manufacturer (Mimotopes); cited from earlier work

T2 sequence (P00327 whole entry): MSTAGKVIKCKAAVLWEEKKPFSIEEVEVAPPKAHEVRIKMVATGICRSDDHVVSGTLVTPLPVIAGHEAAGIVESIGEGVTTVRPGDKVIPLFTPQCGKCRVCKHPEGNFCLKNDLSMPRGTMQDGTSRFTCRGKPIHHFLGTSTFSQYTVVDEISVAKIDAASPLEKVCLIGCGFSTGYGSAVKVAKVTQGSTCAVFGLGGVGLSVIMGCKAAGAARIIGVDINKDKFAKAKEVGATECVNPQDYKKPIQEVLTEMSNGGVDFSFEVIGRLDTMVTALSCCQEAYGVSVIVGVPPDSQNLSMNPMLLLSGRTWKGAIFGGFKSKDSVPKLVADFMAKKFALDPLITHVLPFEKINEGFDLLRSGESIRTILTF

Sequence	Δfluorescence (Aβ) ([1]; ThioflavinT, 50° C. for 72 hours, no chaperone 1,324,974,048)	preventing the Cu+++-induced aggregation of amyloid-beta [2]	preventing the Cu+++ induced aggregation of amyloid-beta [2]	percent protection against thermal aggregation of βH crystallin [3]	Δfluorescence (γD crystallin) [4]	percent protection against thermal aggregation of ADH [5]	effect on the thermal aggregation of βL crystallin (chaperone activity) [6]	effect on the fibrillization of Aβ [1]	percent protection against thermal aggregation of CS [7]	Hydrophobicity [8]
LTITSSLSDGV	352,301,312	equally effective	less effective	approximately 30%	675,352,992	approximately 30%	slightly lower than the HG peptide			
DRFSVNLDVKHFS		equally effective	less effective	approximately 30%		approximately 30%	slightly lower than the HG peptide	strongest effect		
HGKHEERQDE		equally effective	less effective	No protection		No protection	strongest effect	weakest effect	partial protection	
HFSPEELK [Peptide 42]										0.25
